Publication PMC7010297, “How the initiating ribosome copes with ppGpp to translate mRNAs” (PLoS Biology, 2020)
“And” between values parts separate entries of the source, which are not always exact repeats. Equal entries are not always repeated. Where two headings read alike, the source gives them in different places.

System: 30S subunit (30S IC)
Assay: 30S IC formation by MST, mRNA titration
Assay type: binding, Escherichia coli
Settings: for MST Average / MST Replicates (a.u.): Fig 3B; for Kd: Fig 3C, from mRNA titration of 30S IC formation; for 30S IC formation MST signal, Average / 30S IC formation MST signal, replicates: Fig 6D
Text: Fig 1 Bacterial stringent response and experimental approach. (A) Schematics representing the onset of stringent response, (p)ppGpp accumulation, and gene expression regulation. Translation of stress-related mRNAs upon (p)ppGpp accumulating is the focus of the investigation (indicated as the red question mark). (B) Schematics of instrumentation for measuring 30S initiation complex (IC) by fluorescence Microscale Thermophoresis (MST) (provided by Nanotemper Technologies). […] Fluorophore excitation and measurement of the emitted fluorescence, together with IR-mediated perturbation of the equilibrium, are achieved through an objective and dichroic mirror. (C) Time courses of fluorescence showing the equilibrium relaxation upon thermal perturbation at varying ligand concentrations. Blue vertical lines indicate the fluorescence signal readout prior to the equilibrium perturbation (Fi), while vertical red lines indicate the fluorescence signal upon reaching the new equilibrium (Ff). Colored traces represent different concentrations of the titrating mRNA (0.1 to 4 μM). The ratio between the Ff over Fi times 1,000 is the normalized thermophoresis shift (MST). The dependency of MST shift on ligand concentration allows to estimate KD constants of the interaction using a hyperbolic or quadratic function and nonlinear regression fitting. MST measurements (closed circles) are indicated in the same colors as their respective time traces in (C). (D) Formation of 30S IC measured by MST. Time traces of thermophoresis (S1 Fig) were used to calculate MST values for all four combinations of mRNA start codons and labeled tRNAs for dependencies on mRNA concentration. […] Closed symbols indicate that Bpy-Met-tRNA^fMet was used, while open symbols correspond to Bpy-Phe-tRNA^Phe. Continuous lines indicate nonlinear regression fittings. Three to four measurements were performed; mean and error bars representing standard deviations are plotted (S1 Data).
To monitor the interaction of initiator tRNA and 30S ribosomal subunits, we used Microscale Thermophoresis (MST) with a fluorescently labelled initiator tRNA (Bpy-tRNAi) (Fig 1B). MST allows to measure fluorescence in a constrained space. Changes on the readout derive from molecular drifts resulting from small thermal equilibrium perturbations. Upon equilibrium perturbations, the patterns of Bpy-tRNAi migration away from the observation space are related to bound and unbound states (Fig 1B). […] On the contrary, a decrease in thermophoresis indicated the dissociation of Bpy-tRNAi. The relation between fluorescence measured at both equilibriums (Ff to Fi, after and prior to the perturbation, respectively) as a function of ligand concentration allowed to determine dissociation constants of the interaction (Fig 1C).
By observing the bound state of Bpy-tRNAi to the 30S subunit, MST could be measuring either IC, 30S pre-IC, or 30S IC, as they are identical in terms of ligand composition. […] To unambiguously assign which step is monitored by MST, we used different combinations of start codons and fluorescent tRNAs.
MST was calculated from the respective fluorescence time dependencies (S3 Fig). […] Symbols as in (B). […] Continuous lines indicate nonlinear regression fittings with quadratic (B and E) or same-site competition (G) functions. Three measurements were performed; mean and standard deviations are plotted (S1 Data).

[1] = Fig 3D, efficiency of 30S IC formation

B1: mTufA: TufA mRNA with full-length 5′ UTR, in vitro transcribed, codes for EF-Tu (nucleic acid)
chain: GGUUCUAUCGCCUUUAAAGAAGGCUUUAAGAAAGCGAAACCAGUUCUGCUUGAGCCGAUCAUGAAGGUUGAAGUAGAAACUCCGGAAGAGAACACCGGUGACGUUAUCGGUGACUUGAGCCGUCGUCGUGGUAUGCUCAAAGGUCAGGAAUCUGAAGUUACUGGCGUUAAGAUCCACGCUGAAGUACCGCUGUCUGAAAUGUUCGGAUACGCAACUCAGCUGCGUUCUCUGACCAAAGGUCGUGCAUCAUACACUAUGGAAUUCCUGAAGUAUGAUGAAGCGCCGAGUAACGUUGCUCAGGCCGUAAUUGAAGCCCGUGGUAAAUAAGCCUAAGGGUUAAUACCAAAGUCCCGUGCUCUCUCCUGAAGGGGAGAGCACUAUAGUAAGGAAUAUAGCCGUGUCUAAAGAAAAAUUUGAACG
- MST Average (mRNA 0.004 μM): 969.58 a.u.
- MST Replicates (a.u.) (mRNA 0.004 μM): 968.54 a.u. and 970.25 a.u. and 969.97 a.u.
- MST Average (mRNA 0.008 μM): 969.59 a.u.
- MST Replicates (a.u.) (mRNA 0.008 μM): 969.28 a.u. and 969.63 a.u. and 969.86 a.u.
- MST Average (mRNA 0.016 μM): 972.78 a.u.
- MST Replicates (a.u.) (mRNA 0.016 μM): 971.79 a.u. and 972.82 a.u. and 973.72 a.u.
- MST Average (mRNA 0.03 μM): 974.49 a.u.
- MST Replicates (a.u.) (mRNA 0.03 μM): 974.10 a.u. and 974.12 a.u. and 975.24 a.u.
- MST Average (mRNA 0.06 μM): 982.70 a.u.
- MST Replicates (a.u.) (mRNA 0.06 μM): 982.27 a.u. and 982.61 a.u. and 983.22 a.u.
- MST Average (mRNA 0.13 μM): 997.76 a.u.
- MST Replicates (a.u.) (mRNA 0.13 μM): 996.79 a.u. and 997.90 a.u. and 998.61 a.u.
- MST Average (mRNA 0.25 μM): 1022.60 a.u.
- MST Replicates (a.u.) (mRNA 0.25 μM): 1021.41 a.u. and 1022.36 a.u. and 1024.04 a.u.
- MST Average (mRNA 0.50 μM): 1057.58 a.u.
- MST Replicates (a.u.) (mRNA 0.50 μM): 1056.44 a.u. and 1057.96 a.u. and 1058.33 a.u.
- MST Average (mRNA 1.00 μM): 1095.54 a.u.
- MST Replicates (a.u.) (mRNA 1.00 μM): 1094.17 a.u. and 1095.62 a.u. and 1096.83 a.u.
- MST Average (mRNA 2.00 μM): 1113.87 a.u.
- MST Replicates (a.u.) (mRNA 2.00 μM): 1113.37 a.u. and 1113.82 a.u. and 1114.42 a.u.
- Kd (read-out: Kd (μM) of the mRNA, Average): 0.19 µM
- Kd (read-out: Kd (μM) of the mRNA, single replicate): 0.19 µM and 0.18 µM
- MST Amplitude (a.u.), Average [1]: 165.04 a.u.
- MST Amplitude (a.u.), single replicate [1]: 165.44 a.u. and 164.97 a.u. and 164.70 a.u.
- 30S IC formation MST signal, Average (mRNA 0.001 µM): 934.16
- 30S IC formation MST signal, replicates (mRNA 0.001 µM): 933.97 and 934.33 and 934.18
- 30S IC formation MST signal, Average (mRNA 0.002 µM): 931.08
- 30S IC formation MST signal, replicates (mRNA 0.002 µM): 929.08 and 931.16 and 933.00
- 30S IC formation MST signal, Average (mRNA 0.004 µM): 929.10
- 30S IC formation MST signal, replicates (mRNA 0.004 µM): 927.65 and 929.57 and 930.10
- 30S IC formation MST signal, Average (mRNA 0.008 µM): 927.54
- 30S IC formation MST signal, replicates (mRNA 0.008 µM): 923.84 and 929.70 and 929.07
- 30S IC formation MST signal, Average (mRNA 0.016 µM): 926.63
- 30S IC formation MST signal, replicates (mRNA 0.016 µM): 924.56 and 926.45 and 928.88
- 30S IC formation MST signal, Average (mRNA 0.031 µM): 928.44
- 30S IC formation MST signal, replicates (mRNA 0.031 µM): 928.15 and 928.36 and 928.82
- 30S IC formation MST signal, Average (mRNA 0.062 µM): 934.74
- 30S IC formation MST signal, replicates (mRNA 0.062 µM): 934.59 and 934.05 and 935.59
- 30S IC formation MST signal, Average (mRNA 0.125 µM): 947.53
- 30S IC formation MST signal, replicates (mRNA 0.125 µM): 949.07 and 946.54 and 946.98
- 30S IC formation MST signal, Average (mRNA 0.25 µM): 962.80
- 30S IC formation MST signal, replicates (mRNA 0.25 µM): 964.74 and 961.64 and 962.03
- 30S IC formation MST signal, Average (mRNA 0.5 µM): 989.99
- 30S IC formation MST signal, replicates (mRNA 0.5 µM): 993.30 and 987.37 and 989.30
- 30S IC formation MST signal, Average (mRNA 1 µM): 1011.86
- 30S IC formation MST signal, replicates (mRNA 1 µM): 1011.95 and 1011.22 and 1012.39
- 30S IC formation MST signal, Average (mRNA 2 µM): 1036.12
- 30S IC formation MST signal, replicates (mRNA 2 µM): 1039.43 and 1034.52 and 1034.41
